Assay results from patent US7033999B2, “Nitrosated and nitrosylated heme proteins” (Brigham and Women's Hospital, priority 1991, dated 2006).
Where two headings read alike, the source gives them in different places.

Tests used:
[1] = system: endothelium-denuded rabbit aortic strips; test: Vessel relaxation bioassay; type: cell-based; conditions: for % Relaxation: 150 nM, contraction with 1 μM epinephrine, mean ±S.D., n=4
Experimental: New Zealand White female rabbits weighing 3–4 kg were anesthetized with 30 mg/kg IV sodium pentobarbital. Descending thoracic aortae were isolated and placed immediately in a cold physiologic salt solution (Kreb's) (mM): NaCl, 118; CKl, 4.7; CaCl2, 2.5; MgSO4, 1.2; KH2PO4, 1.2; NaHCO3, 12.5; and D-glucose, 11.0. The vessels were cleaned of adherent connective tissue, and the endothelium removed by gentle rubbing with a cotton tipped applicator inserted into the lumen, after which the vessel was cut into 5 mm rings. The rings were mounted on stirrups and connected to transducers (model FT03C Grass Instruments, Quincy, Mass.) by which changes in isometric tension were recorded.
Samples were added to a standard bioassay in which vessel rings were suspended in glass chambers containing seven mil of oxygenated Kreb's buffer, in a standard bioassay (Cook et al., Am. J. Physiol. 28:H804 (1989), herein incorporated by reference). Sustained contractions, to 2 gm tension, were induced with 1 μM epinephrine, after which the effects of t-PA and S—NO-t-PA were tested. In certain experiments the guanylate cyclase inhibitor, methylene blue, was preincubated with vessel rings for 15 minutes prior to initiation of contractions.
The vasodilatory actions of S-nitroso-BSA were examined in a standard bioassay containing endothelium-denuded rabbit aortic strips in Kreb's buffer, pH 7.5, at 37°, as described in Example 6.
In vessel experiments, relaxations to S—NO-BSA are expressed as-percent of tone induced by 1.0 μM norepinephrine.

fibrinogen = target: T1, fibrinogen (Homo sapiens, UniProt P02671+P02675+P02679); test: Binding of t-PA and S—NO-t-PA to fibrinogen-coated wells (ELISA)
T1 construct: purchased Enzyme Research Laboratories, South Bend, Ind
T1 sequence (P02671 20-629 limits assumed): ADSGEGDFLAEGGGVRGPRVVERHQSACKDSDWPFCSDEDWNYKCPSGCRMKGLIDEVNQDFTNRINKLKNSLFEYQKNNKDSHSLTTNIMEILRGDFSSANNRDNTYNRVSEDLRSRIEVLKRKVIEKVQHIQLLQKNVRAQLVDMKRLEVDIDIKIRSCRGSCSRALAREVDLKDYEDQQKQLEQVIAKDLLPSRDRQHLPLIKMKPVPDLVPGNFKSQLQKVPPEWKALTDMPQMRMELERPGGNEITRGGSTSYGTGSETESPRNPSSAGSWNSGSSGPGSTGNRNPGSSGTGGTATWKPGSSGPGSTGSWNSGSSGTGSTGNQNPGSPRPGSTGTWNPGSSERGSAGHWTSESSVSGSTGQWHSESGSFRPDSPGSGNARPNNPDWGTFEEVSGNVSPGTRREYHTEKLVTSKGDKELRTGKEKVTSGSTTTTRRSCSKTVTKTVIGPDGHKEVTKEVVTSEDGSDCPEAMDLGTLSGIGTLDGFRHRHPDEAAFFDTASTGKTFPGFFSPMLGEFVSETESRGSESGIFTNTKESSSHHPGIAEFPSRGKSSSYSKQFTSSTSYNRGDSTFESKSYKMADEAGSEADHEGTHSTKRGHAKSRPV
T1 sequence (P02675 31-491): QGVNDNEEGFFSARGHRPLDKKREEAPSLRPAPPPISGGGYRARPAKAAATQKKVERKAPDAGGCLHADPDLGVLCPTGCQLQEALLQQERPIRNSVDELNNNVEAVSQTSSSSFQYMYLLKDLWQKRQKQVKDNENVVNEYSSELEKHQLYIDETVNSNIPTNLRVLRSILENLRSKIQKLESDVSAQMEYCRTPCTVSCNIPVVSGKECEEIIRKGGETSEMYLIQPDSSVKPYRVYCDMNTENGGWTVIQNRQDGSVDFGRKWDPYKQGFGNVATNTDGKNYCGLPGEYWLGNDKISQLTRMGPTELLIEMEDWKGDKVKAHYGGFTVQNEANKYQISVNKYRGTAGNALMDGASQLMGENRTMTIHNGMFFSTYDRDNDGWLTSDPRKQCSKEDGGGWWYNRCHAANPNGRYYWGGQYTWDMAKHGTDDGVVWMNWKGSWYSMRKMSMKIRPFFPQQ
T1 sequence (P02679 27-433 limits assumed): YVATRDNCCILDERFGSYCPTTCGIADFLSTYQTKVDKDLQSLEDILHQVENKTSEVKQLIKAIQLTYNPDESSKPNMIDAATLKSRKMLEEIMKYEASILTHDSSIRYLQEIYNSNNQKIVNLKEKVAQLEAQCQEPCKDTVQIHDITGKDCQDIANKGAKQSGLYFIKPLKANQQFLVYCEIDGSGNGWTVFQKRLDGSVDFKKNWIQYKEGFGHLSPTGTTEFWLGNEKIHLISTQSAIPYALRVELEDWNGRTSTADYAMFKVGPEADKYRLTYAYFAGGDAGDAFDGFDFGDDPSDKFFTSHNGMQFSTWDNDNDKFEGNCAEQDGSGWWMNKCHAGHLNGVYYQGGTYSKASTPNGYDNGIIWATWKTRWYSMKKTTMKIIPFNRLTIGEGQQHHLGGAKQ
Experimental: The binding of t-PA and S——NO-t-PA to fibrinogen was measured using polystyrene microliter wells (flat-bottom, high binding 96-well EIA plates, cat. #3590, Costar, Cambridge, Mass.). Wells were coated with fibrinogen (0.08 ug/ul) and the remaining binding sites with 2% bovine serum albumin. Quantification of t-PA binding was determined using a Horse-Radish Peroxidase linked sheep antimurine antibody in a colorimetric assay in the presence of O-phenylenediamine, 0.014% H2O2. Color change was measured spectrophotometrically with a Dynatech MR500 Card Reader (Dynatech, Chantilly, Va.) at 490 nm.
Binding of t-PA is reversible and specific, and saturates at 1500–3000 nM; at saturation, 18 ng of t-PA are bound per well ([…] moles t-PA per mole of fibrinogen) with an estimated KDin the range of 15–650 nM. Binding of t-PA and S—NO-t-PA was quantified by ELISA over the concentration range of 150–1500 nM using a mixture containing six murine monoclonal anti-t-PA antibodies.

In the case of “S—NO-t-PA: derived from the nitrosylation of tissue-type plasminogen activator (t-PA)”, the “% Relaxation” value [1] is reported as 20 ± 7 %, the “relaxations in presence of guanylate cyclase inhibitor methylene blue” value ([1]; methylene blue preincubated 15 minutes) is reported as “attenuated” and the Kd (fibrinogen; Scatchard analysis, read-out: estimated apparent DD for surface-bound fibrinogen) is reported as 450 nM. For the same substance, the “binding isotherm compared with t-PA” value (fibrinogen; two-way ANOVA) was “not significantly different”.
In the case of “t-PA: tissue-type plasminogen activator, provided by Genentech”, the “% Relaxation” value [1] is reported as 2.5 ± 4%, the “moles t-PA per mole of fibrinogen at saturation” value (fibrinogen; at saturation) is reported as 0105 moles t-PA per mole of fibrinogen and the “t-PA bound per well at saturation” value (fibrinogen; at saturation) is reported as 18 ng. For the same substance, the “concentration at which binding saturates” value (fibrinogen; fibrinogen-coated wells) was 1500 to 3000 nM and the Kd (fibrinogen; fibrinogen-coated wells, read-out: estimated KD of binding to fibrinogen) was 15 to 650 nM.
